Measurements published in publication PMC5472190.

Columns and labels:
[1] = target: triplex of the HSV-1 capsid (herpes simplex virus 1, strain F); experiment: cryo-EM structure; icosahedral reconstruction of isolated PEVs (123 particles), projection matching from a starting map of in vitro-matured B-capsids that lack CCSC and pUL35; ~2 nm around the capsid shell, ~3.5 nm for the whole particle
[2] = target: nuclear egress complex (NEC), heterodimer of pUL31 and pUL34 (herpes simplex virus 1, strain F) (UniProt P10215); experiment: cryo-electron tomography; tomograms of nuclear sacs from US3-null-infected Vero cells; 188 ring subtomograms, rotational symmetry by ROTASTAT, subtomogram averaging

Row | Substance | occupancy [1] | stoichiometry N [2]
1 | heterodimeric pUL17/pUL25 complex, C-capsid-specific complex (CCSC) (from UniProt P10201 1-703; P10209 1-580) | 100% | 
2 | nuclear egress complex (NEC), heterodimer of pUL31 and pUL34 (from UniProt P10215 1-306; P10218 1-275) |  | 7
